Assay results published in patent publication US20240158455A1, “MULTIPLE SCLEROSIS ASSOCIATED AUTOANTIGENS, AND USE THEREOF IN THERAPY AND DIAGNOSIS” (NEOGAP Therapeutics AB, priority 2017, published 2024).

Target: HLA DRB5 01:01 (Homo sapiens, UniProt P01903+Q30154)
Test: Competitive binding assay of overlapping peptides to HLA
Conditions: competitive binding to HLA DRB5 01:01, compared with reference H1N1 influenza peptide

Row | Substance | Binding affinity
1 | Aa 02-16-SEQ ID NO: 1 (VEAFCATWKLTNSQN; listed as Homo sapiens) [FABP7 #1] | +
2 | Aa 07-21-SEQ ID NO: 1 (ATWKLTNSQNFDEYM; listed as Homo sapiens) [FABP7 #2] | +
3 | Aa 12-26-SEQ ID NO: 1 (TNSQNFDEYMKALGV; listed as Homo sapiens) [FABP7 #3] | −
4 | Aa 17-31-SEQ ID NO: 1 (FDEYMKALGVGFATR; listed as Homo sapiens) [FABP7 #4] | ++
5 | Aa 22-36-SEQ ID NO: 1 (KALGVGFATRQVGNV; listed as Homo sapiens) [FABP7 #5] | −
6 | Aa 27-41-SEQ ID NO: 1 (GFATRQVGNVTKPTV; listed as Homo sapiens) [FABP7 #6] | +
7 | Aa 28-42-SEQ ID NO: 2 (AVITGACDKDSQCGG; listed as Homo sapiens) [PROK2 #1] | −
8 | Aa 32-46-SEQ ID NO: 1 (QVGNVTKPTVIISQE; listed as Homo sapiens) [FABP7 #7] | −
9 | Aa 33-47-SEQ ID NO: 2 (ACDKDSQCGGGMCCA; listed as Homo sapiens) [PROK2 #2] | −
10 | Aa 37-51-SEQ ID NO: 1 (TKPTVIISQEGDKVV; listed as Homo sapiens) [FABP7 #8] | −
11 | Aa 38-52-SEQ ID NO: 2 (SQCGGGMCCAVSIWV; listed as Homo sapiens) [PROK2 #3] | −
12 | Aa 42-56-SEQ ID NO: 1 (IISQEGDKVVIRTLS; listed as Homo sapiens) [FABP7 #9] | −
13 | Aa 43-57-SEQ ID NO: 2 (GMCCAVSIWVKSIRI; listed as Homo sapiens) [PROK2 #4] | +
14 | Aa 47-61-SEQ ID NO: 1 (GDKVVIRTLSTFKNT; listed as Homo sapiens) [FABP7 #10] | +
15 | Aa 48-62-SEQ ID NO: 2 (VSIWVKSIRICTPMG; listed as Homo sapiens) [PROK2 #5] | +
16 | Aa 52-66-SEQ ID NO: 1 (IRTLSTFKNTEISFQ; listed as Homo sapiens) [FABP7 #11] | −
17 | Aa 53-67-SEQ ID NO: 2 (KSIRICTPMGKLGDS; listed as Homo sapiens) [PROK2 #6] | +++
18 | Aa 57-71-SEQ ID NO: 1 (TFKNTEISFQLGEEF; listed as Homo sapiens) [FABP7 #12] | −
19 | Aa 58-72-SEQ ID NO: 2 (CTPMGKLGDSCHPLT; listed as Homo sapiens) [PROK2 #7] | −
20 | Aa 59-69 + 96-99-SEQ ID NO: 2 [PROK2 #15] | −
21 | Aa 62-76-SEQ ID NO: 1 (EISFQLGEEFDETTA; listed as Homo sapiens) [FABP7 #13] | −
22 | Aa 63-77-SEQ ID NO: 2 (KLGDSCHPLTRKNNF; listed as Homo sapiens) [PROK2 #8] | −
23 | Aa 64-69 + 96-104-SEQ ID NO: 2 [PROK2 #16] | +
24 | Aa 67-81-SEQ ID NO: 1 (LGEEFDETTADDRNC; listed as Homo sapiens) [FABP7 #14] | −
25 | Aa 68-82-SEQ ID NO: 2 (CHPLTRKNNFGNGRQ; listed as Homo sapiens) [PROK2 #9] | +
26 | Aa 69 + 96-109-SEQ ID NO: 2 [PROK2 #17] | −

Row | Substance | Binding affinity
27 | Aa 72-86-SEQ ID NO: 1 (DETTADDRNCKSVVS; listed as Homo sapiens) [FABP7 #15] | −
28 | Aa 73-87-SEQ ID NO: 2 (RKNNFGNGRQERRKR; listed as Homo sapiens) [PROK2 #10] | +
29 | Aa 77-91-SEQ ID NO: 1 (DDRNCKSVVSLDGDK; listed as Homo sapiens) [FABP7 #16] | −
30 | Aa 78-92-SEQ ID NO: 2 (GNGRQERRKRKRSKR; listed as Homo sapiens) [PROK2 #11] | −
31 | Aa 82-96-SEQ ID NO: 1 (KSVVSLDGDKLVHIQ; listed as Homo sapiens) [FABP7 #17] | −
32 | Aa 83-97-SEQ ID NO: 2 (ERRKRKRSKRKKEVP; listed as Homo sapiens) [PROK2 #12] | −
33 | Aa 87-101-SEQ ID NO: 1 (LDGDKLVHIQKWDGK; listed as Homo sapiens) [FABP7 #18] | −
34 | Aa 88-102-SEQ ID NO: 2 (KRSKRKKEVPFFGRR; listed as Homo sapiens) [PROK2 #13] | −
35 | Aa 92-106-SEQ ID NO: 1 (LVHIQKWDGKETNFV; listed as Homo sapiens) [FABP7 #19] | −
36 | Aa 93-107-SEQ ID NO: 2 (KKEVPFFGRRMHHTC; listed as Homo sapiens) [PROK2 #14] | +
37 | Aa 97-111-SEQ ID NO: 1 (KWDGKETNFVREIKD; listed as Homo sapiens) [FABP7 #20] | −
38 | Aa 100-114-SEQ ID NO: 2 (GRRMHHTCPCLPGLA; listed as Homo sapiens) [PROK2 #18] | −
39 | Aa 102-116-SEQ ID NO: 1 (ETNFVREIKDGKMVM; listed as Homo sapiens) [FABP7 #21] | +
40 | Aa 105-119-SEQ ID NO: 2 (HTCPCLPGLACLRTS; listed as Homo sapiens) [PROK2 #19] | −
41 | Aa 106-120-SEQ ID NO: 1 (VREIKDGKMVMVSND; listed as Homo sapiens) [FABP7 #25] | −
42 | Aa 107-121-SEQ ID NO: 6 (REIKDGKMVMTLTFG; listed as Homo sapiens) [FABP7 #22] | −
43 | Aa 110-124-SEQ ID NO: 2 (LPGLACLRTSFNRFI; listed as Homo sapiens) [PROK2 #20] | ++
44 | Aa 111-125-SEQ ID NO: 1 (DGKMVMVSNDNSPFF; listed as Homo sapiens) [FABP7 #26] | +
45 | Aa 112-126-SEQ ID NO: 6 (GKMVMTLTFGDVVAV; listed as Homo sapiens) [FABP7 #23] | −
46 | Aa 115-129-SEQ ID NO: 2 (CLRTSFNRFICLAQK; listed as Homo sapiens) [PROK2 #21] | +
47 | Aa 116-130-SEQ ID NO: 1 (MVSNDNSPFFLVFFS; listed as Homo sapiens) [FABP7 #27] | −
48 | Aa 118-132-SEQ ID NO: 6 (LTFGDVVAVRHYEKA; listed as Homo sapiens) [FABP7 #24] | +
49 | Aa 121-135-SEQ ID NO: 1 (NSPFFLVFFSSPHTS; listed as Homo sapiens) [FABP7 #28] | +++
50 | Aa 126-140-SEQ ID NO: 1 (LVFFSSPHTSHLLPS; listed as Homo sapiens) [FABP7 #29] | +
51 | Aa 131-145-SEQ ID NO: 1 (SPHTSHLLPSSSLLL; listed as Homo sapiens) [FABP7 #30] | +
52 | Aa 136-150-SEQ ID NO: 1 (HLLPSSSLLLPFFLL; listed as Homo sapiens) [FABP7 #31] | −
